Assay results: PMC11094003, “Chemical manipulation of an activation/inhibition switch in the nuclear receptor PXR” (Nature Communications, 2024)
Positions count from the first letter of the chain named.

Assays:
[1] = biological target: T1, L428V mutant of human pregnane X receptor ligand binding domain (residues 130-434) (human, UniProt O75469 130-434, L428V); assay: crystal structure; PXR L428V LBD tethered to the SRC-1 peptide on one chain, apo and with the antagonist SJPYT-331; 50 mM Bis-Tris pH 6-7, 10-20% MPD, 20 °C; conditions: both partners purified
T1 construct: As m1, one polypeptide with the SRC-1 peptide: His6 - PXR 130-434 (L428V) - SGGSGG linker - SRC-1 678-710; also called PXR^L428V LBD; source: E. coli BL21(DE3), purified (HisTrap, HiTrap SP flow-through, Superdex 200 SEC)
T1 sequence (looked up): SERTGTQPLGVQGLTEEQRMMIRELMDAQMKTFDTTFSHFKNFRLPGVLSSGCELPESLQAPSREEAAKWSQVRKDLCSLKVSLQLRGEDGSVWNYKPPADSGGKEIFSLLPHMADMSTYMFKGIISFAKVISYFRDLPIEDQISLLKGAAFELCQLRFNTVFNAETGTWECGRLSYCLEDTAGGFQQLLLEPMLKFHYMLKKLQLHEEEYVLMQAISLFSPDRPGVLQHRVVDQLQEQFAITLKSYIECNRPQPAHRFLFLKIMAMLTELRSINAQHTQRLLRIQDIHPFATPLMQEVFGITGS

[2] = biological target: T2, human pregnane X receptor ligand binding domain (residues 130-434) (human, UniProt O75469 130-434); assay: crystal structure; PXR LBD tethered to the SRC-1 peptide on one chain, co-crystallised with an antagonist (SJPYT-310, SJPYT-278, SJPYT-312 or SJPYT-331; 2:1 ligand to protein); 50 mM Bis-Tris pH 6-7, 10-20% MPD, 20 °C; conditions: both partners purified
T2 construct: In the crystallised construct this domain and the SRC-1 peptide are one polypeptide: His6 - PXR 130-434 - SGGSGG linker - SRC-1 678-710; Written here as a molecule of its own for the pair PXR LBD / SRC-1; also called PXR LBD; WT PXR LBD; source: E. coli BL21(DE3), purified (HisTrap, HiTrap SP flow-through, Superdex 200 SEC)
T2 sequence (looked up): T1 sequence (looked up) with V299L

binding result [1]: binds
binding result [2]: binds
B1: SRC-1 peptide (residues 678-710), 33 amino acids (peptide, UniProt Q15788 678-710, looked up)
chain: SSHSSLTERHKILHRLLQEGSPSDITTLSVEPD
notes: Not a free peptide: tethered to the C-terminus of PXR LBD (m1 or m3) through an SGGSGG linker on one chain; also called tethered SRC-1 peptide
